1 substance from patent US7456147B2, “Controlled release of active agents utilizing repeat sequence protein polymers” (Dow Corning, Corporation, priority 2003, dated 2008) can be followed below.

This series in a line: Isoelectric point of SELP repeat sequence protein polymers. It counts as physicochemical.

Consider “SELP47K: silk-elastin repeat sequence protein block copolymer, head-[(GAGAGS)2(GVGVP)3GKGVP(GVGP)4(GAGAGS)2]13-tail, 886 amino acids”, for which the “pI of the protein” value was 10.5.
